Here are results for one molecule from patent US6576442 (SUGEN, dated 2003).

The test addresses T1, PYK-NN (PYK2 aa 2-285) fused to the LexA DNA binding domain (UniProt P0A7C2 1-202; Q14289 2-285).
T1 construct: Yeast two-hybrid bait
Kind of test: yeast two-hybrid with heterologous baits. As for the experimental part:
The yeast strain L40 containing the reporter genes HIS3 and β-gal under control of upstream LexA-binding site, was used as a host for the two-hybrid screening. […] Yeast strain that express the LexA-PYKN fusion protein was transfected with human brain cDNA library (Clontech #HL404AB) fused to GAL4 transcriptional activation domain. Transformants were plated on agar selection medium lacking Uracil (Ura-), Tryptophane (Trp-), Leucine (Leu-) and Histidine (His-). Resulting colonies were isolated and retested for growth on -Ura-Trp-Leu-His plates and for β-galactosidase activity. Plasmid DNA was purified from colonies that were His+, β-gal+ and used for retransformation of yeast strains expressing heterologous baits to determine the specificity of the interaction.
The yeast two-hybrid system was used to identify proteins that interact with the amino-terminal domain of PYK2. The N-terminal domain of PYK2 was fused to the LexA DNA binding domain and screened a human brain cDNA library. […] The specificity of the interaction was further determined by transformation of this clone into a yeast strain expressing heterologous baits. An interaction was detected in yeast strain expressing either the PYK-N terminal domain, or a shorter version of PYK-N that was missing 48 amino acids from its C-terminal end.

T1 sequence (P0A7C2 other isoform, or with tags, fused parts or gaps limits assumed): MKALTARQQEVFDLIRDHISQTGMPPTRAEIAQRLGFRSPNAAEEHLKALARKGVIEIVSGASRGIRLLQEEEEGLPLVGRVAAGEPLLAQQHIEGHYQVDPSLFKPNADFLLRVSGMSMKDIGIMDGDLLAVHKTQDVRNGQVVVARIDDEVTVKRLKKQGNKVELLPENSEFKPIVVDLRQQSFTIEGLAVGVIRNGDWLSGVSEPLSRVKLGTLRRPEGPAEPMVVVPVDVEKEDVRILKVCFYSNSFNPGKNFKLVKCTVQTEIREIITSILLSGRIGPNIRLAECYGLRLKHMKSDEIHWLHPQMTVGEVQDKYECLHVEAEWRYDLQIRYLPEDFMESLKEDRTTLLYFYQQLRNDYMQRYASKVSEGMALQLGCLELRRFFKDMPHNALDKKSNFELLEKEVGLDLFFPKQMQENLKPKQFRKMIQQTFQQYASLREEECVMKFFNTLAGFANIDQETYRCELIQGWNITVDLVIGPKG

B1: original two hybrid clone containing amino acids 627-975 of hrdgB1, fused to the GAL4 transcriptional activation domain (other, not shown: large carriers)
chain: VKLRNVTANHRANDVIAAEDGPQVLVGRFMYGPLDMVALTGEKVDILVMAEPSSGRWVHLDTEITNSSGRITYNVPRPRRLGVGVYPVKMVVRGDQTCAMSYLTVLPRGMECVVFSIDGSFAASVSIMGSDPKVRPGAVDVVRHWQDLGYMILYITGRPDMQKQRVVSWLSQHNFPQGMIFFSDGLVHDPLRQKAIFLRNLMQECFIKISAAYGSTKDISVYSVLGLPASQIFIVGRPTKKYQTQCQFLSEGYAAHLAVLEASHRSRPKKNNSRMILRKGSFGLHAQPEFLRKRNHLRRTMSVQQPDPPAANPKPERAQSQPESDKDHERPLPALSWARGPPKFESVP
notes: The printed end may count the stop codon; also called GAL10-rdgB1
B1: the binding result is recorded as “no binding”.
